# In patent US20030035790A1, “Combination therapy for the prevention or treatment of cancer, inflammatory disorders or infectious diseases in a subject” (priority 1999, published 2003):
# What was measured:
# [1] = tested on: Fr.II cells derived from the bone marrow of MCA26 tumor-bearing mice; test: In vitro differentiation of bone marrow Fr.II myeloid progenitor cells, flow cytometry; type: cell-based, mouse; conditions: 10 days GM-CSF, then additional 24 hours
# Experimental: FIG. 19. Immunostaining of DCs generated from different culture conditions. BM Fr.II cells derived from naive and MCA-26 tumor bearing mice were cultured with mGM-CSF for 10 days. Non-adherent cells were harvested and cultured in the presence of mGM-CSF or mGM-CSF and anti-CD40 mAb ([…], FGK45 clone) for additional 24 hours. Non-adherent cells were stained and analyzed for the expression of various surface molecules by flow cytometry. Mean±SD is obtained from three independent experiments.
# The ability of Fr.II cells derived from the bone marrow of MCA26 tumor-bearing mice to differentiate into dendritic cells when cultured under various conditions was assessed. Fr.II cells from derived the bone marrow of tumor-free or MCA26 tumor-bearing mice were cultured for 10 days with GM-CSF. Then non-adherent cells were harvested and cultured for additional 24 hours in the presence of GM-CSF or GM-CSF and anti-CD40 monoclonal antibody. The non-adherent cells were stained and analyzed for the expression of various cell surface molecules by flow cytometry. The expression of CD40, CD80, and MHC class II was relatively low in the tumor-bearing mice. However, after culturing the Fr. II cells with GM-CSF or GM-CSF and anti-CD40 monoclonal antibody, the expression of CD40, CD 80, CD11c and MHC class II by the Fr. […]
# TILs = test: In vitro GM-CSF stimulation of TILs from large tumor-bearing mice, surface marker staining; type: cell-based, mouse; conditions: GM-CSF 100 ng/ml for 5 days
# Experimental: The ability of in vitro stimulation with GM-CSF to promote the differentiation of tumor infiltrating lymphocytes (TILs) into dendritic cells or macrophages by was assessed. The TILs were isolated from large tumor-bearing mice, separated on a lymphocyte separation gradient, cultured with or without GM-CSF (100 ng/ml) for 5 days, and then stained with various cell surface markers. A reproducibly high percentage of Gr-1^+ cells was resent in the TIL population (65.5%), while the percentage of dendritic cells in the TIL population was very low (0.31%); some macrophages (14.9%) were also present in the TIL population.
molecule,measurement,setting,value
"GM-CSF: murine granulocyte macrophage colony-stimulating factor added to cultures (protein, UniProt P01587 18-141, looked up) Granulocyte-macrophage …: APTRSPITVTRPWKHVEAIKEALNLLDDMPVTLNEEVEVVSNEFSFKKLTCVQTRLKIFEQGLRGNFTKLKGALNMTASYYQTYCPPTPETDCETQVTTYADFIDSLKTFLTDIPFECKKPGQK","expression of CD40, CD 80, CD11c and MHC class II by the Fr. II cells",[1],significantly increased
same,Gr-1^+ cells in the TIL population,TILs,42.7%
same,dendritic cells in the TIL population,TILs,13.9%
same,macrophages in the TIL population,TILs,24.3%
